Test results reported in publication PMC5629633.

Test system: NC(=O)CC[C@H](N)C(=O)O
Assay: purified protein
Details: pH 8.0, 30 °C, 11 mM MgCl2, co-substrate ATP

Which Km does the source give for “Cj1418 (L-glutamine kinase) (Campylobacter jejuni subsp. jejuni NCTC 11168 = ATCC 700819)” here?
Its Km is 640 ± 60 µM.
